In patent US10098938B2, “Peptides and combination of peptides for use in immunotherapy against various cancers” (immatics biotechnologies GmbH, priority 2015, dated 2018):

Experiments:
HLA-A*02 = HLA-A*02 (Homo sapiens, UniProt P04439, D140Y/D185E/D98H/E176V/E277Q/G131W/G231S/I119V/I121R/I166T/I218V/L300P/N151K/N90K/P208A/P217A/Q86G/Q94H/R138H/R169H); assay: MHC binding assay, UV-ligand exchange with β2m ELISA, HLA-A*02; conditions: binding to HLA-A*02 ranged by peptide exchange yield
Source text: (§1) Candidate peptides for T cell based therapies according to the present invention were further tested for their MHC binding capacity (affinity). The individual peptide-MHC complexes were produced by UV-ligand exchange, where a UV-sensitive peptide is cleaved upon UV-irradiation, and exchanged with the peptide of interest as analyzed. Only peptide candidates that can effectively bind and stabilize the peptide-receptive MHC molecules prevent dissociation of the MHC complexes. To determine the yield of the exchange reaction, an ELISA was performed based on the detection of the light chain (β2m) of stabilized MHC complexes. The assay was performed as generally described in Rodenko et al. (Rodenko et al., 2006).
(§2) 96 well MAXISorp plates (NUNC) were coated over night with 2 ug/ml streptavidin in PBS at room temperature, washed 4× and blocked for 1 h at 37° C. in 2% BSA containing blocking buffer. Refolded HLA-A*02:01/MLA-001 monomers served as standards, covering the range of 15-500 ng/ml. Peptide-MHC monomers of the UV-exchange reaction were diluted 100 fold in blocking buffer. Samples were incubated for 1 h at 37° C., washed four times, incubated with 2 ug/ml HRP conjugated anti-β2m for 1 h at 37° C., washed again and detected with TMB solution that is stopped with […]. Absorption was measured at 450 nm. Candidate peptides that show a high exchange yield (preferably higher than 50%, most preferred higher than 75%) are generally preferred for a generation and production of antibodies or fragments thereof, and/or T cell receptors or fragments thereof, as they show sufficient avidity to the MHC molecules and prevent dissociation of the MHC complexes.

CD8+ T cells = assay: In vitro immunogenicity: T-cell priming with aAPCs loaded with peptide/MHC and anti-CD28, pMHC multimer readout; type: cell-based, human; conditions: in vitro immunogenicity of HLA class I peptides; for Wells positive [%]: pMHC multimer readout after T-cell priming
Source text: In order to obtain information regarding the immunogenicity of the TUMAPs of the present invention, the inventors performed investigations using an in vitro T-cell priming assay based on repeated stimulations of CD8+ T cells with artificial antigen presenting cells (aAPCs) loaded with peptide/MHC complexes and anti-CD28 antibody.
In order to perform in vitro stimulations by artificial antigen presenting cells loaded with peptide-MHC complex (pMHC) and anti-CD28 antibody, the inventors first isolated CD8+ T cells from fresh HLA-A*02 leukapheresis products via positive selection using CD8 microbeads (Miltenyi Biotec, Bergisch-Gladbach, Germany) of healthy donors obtained from the University clinics Mannheim, Germany, after informed consent.
PBMCs and isolated CD8+ lymphocytes were incubated in T-cell medium (TCM) until use consisting of RPMI-Glutamax (Invitrogen, Karlsruhe, Germany) supplemented with 10% heat inactivated human AB serum (PAN-Biotech, Aidenbach, Germany), 100 U/ml Penicillin/100 μg/ml Streptomycin (Cambrex, Cologne, Germany), 1 mM sodium pyruvate (CC Pro, Oberdorla, Germany), 20 μg/ml Gentamycin (Cambrex). 2.5 ng/ml IL7 (PromoCell, Heidelberg, Germany) and 10 U/ml IL-2 (Novartis Pharma, Nürnberg, Germany) were also added to the TCM at this step.
Generation of pMHC/anti-CD28 coated beads, T-cell stimulations and readout was performed in a highly defined in vitro system using four different pMHC molecules per stimulation condition and 8 different pMHC molecules per readout condition.
The purified co-stimulatory mouse IgG2a anti human CD28 Ab 9.3 (Jung et al., 1987) was chemically biotinylated using Sulfo-N-hydroxysuccinimidobiotin as recommended by the manufacturer (Perbio, Bonn, Germany). Beads used were 5.6 μm diameter streptavidin coated polystyrene particles (Bangs Laboratories, Illinois, USA).
pMHC used for positive and negative control stimulations were A*0201/MLA-001 (peptide […] (SEQ ID NO. 303) from modified Melan-A/MART-1) and A*0201/DDX5-001 ([…] from DDX5, SEQ ID NO. 304), respectively.
800.000 beads/200 μl were coated in 96-well plates in the presence of 4×12.5 ng different biotin-pMHC, washed and 600 ng biotin anti-CD28 were added subsequently in a volume of 200 μl. Stimulations were initiated in 96-well plates by co-incubating […] CD8+ T cells with 2×10^5 washed coated beads in 200 μl TCM supplemented with 5 ng/ml IL-12 (PromoCell) for 3 days at 37° C. Half of the medium was then exchanged by fresh TCM supplemented with 80 U/ml IL-2 and incubating was continued for 4 days at 37° C. This stimulation cycle was performed for a total of three times. For the pMHC multimer readout using 8 different pMHC molecules per condition, a two-dimensional combinatorial coding approach was used as previously described (Andersen et al., 2012) with minor modifications encompassing coupling to 5 different fluorochromes. Finally, multimeric analyses were performed by staining the cells with Live/dead near IR dye (Invitrogen, Karlsruhe, Germany), CD8-FITC antibody clone SK1 (BD, Heidelberg, Germany) and fluorescent pMHC multimers. For analysis, a BD LSRII SORP cytometer equipped with appropriate lasers and filters was used. Peptide specific cells were calculated as percentage of total CD8+ cells. Evaluation of multimeric analysis was done using the FlowJo software (Tree Star, Oregon, USA). In vitro priming of specific multimer+ CD8+ lymphocytes was detected by comparing to negative control stimulations.

HLA-A*24 = assay: MHC binding assay, UV-ligand exchange with β2m ELISA, HLA-A*24; set-up: species or system human; conditions: binding to HLA-A*24 ranged by peptide exchange yield
Source text: as §1, §2

Row | Substance | Peptide exchange (HLA-A*02) | Wells positive [%] (CD8+ T cells) | other results
1 | 100 (ALLGMIIVGV; listed as Homo sapiens) [compound 100] | + (<20% = +) | – | –
2 | 82 (FIFDEAEKL; listed as Homo sapiens) [compound 82] | + (<20% = +) | – | –
3 | 165 (DYTTWTALL; listed as Homo sapiens) [compound 165] | – | + (<20% = +) | Peptide exchange (HLA-A*24): ++++ (> = 75% = ++++)
4 | 158 (HYSQELSLLYL; listed as Homo sapiens) [compound 158] | – | + (<20% = +) | Peptide exchange (HLA-A*24): ++++ (> = 75% = ++++)
5 | 153 (FISERVEVV; listed as Homo sapiens) [compound 153] | ++++ (> = 75% = ++++) | – | –
6 | 257 (GLYTDPCGV; listed as Homo sapiens) [compound 257] | ++++ (> = 75% = ++++) | – | –
7 | 163 (DYLKGLASF; listed as Homo sapiens) [compound 163] | – | + (<20% = +) | Peptide exchange (HLA-A*24): ++++ (> = 75% = ++++)
8 | 159 (LYNKGFIYL; listed as Homo sapiens) [compound 159] | – | ++++ (> = 70% = ++++) | Peptide exchange (HLA-A*24): ++++ (> = 75% = ++++)
9 | 230 (KLQNIMMLL; listed as Homo sapiens) [compound 230] | – | ++++ (> = 70% = ++++) | –
10 | 268 (QYLGQIQHI; listed as Homo sapiens) [compound 268] | – | + (<20% = +) | –
11 | 125 (SLADYEHFV; listed as Homo sapiens) [compound 125] | ++++ (> = 75% = ++++) | – | –
12 | 167 (NYINRILKL; listed as Homo sapiens) [compound 167] | – | + (<20% = +) | Peptide exchange (HLA-A*24): ++++ (> = 75% = ++++)
13 | 26 (ALQEELTEL; listed as Homo sapiens) [compound 26] | – | + (<20% = +) | –
14 | 129 (RLQDILWFL; listed as Homo sapiens) [compound 129] | ++++ (> = 75% = ++++) | – | –
15 | 207 (AYVVFVSTL; listed as Homo sapiens) [compound 207] | – | + (<20% = +) | –
16 | 197 (EYSLFPGQVVI; listed as Homo sapiens) [compound 197] | – | + (<20% = +) | –
17 | 51 (LLFSRLCGA; listed as Homo sapiens) [compound 51] | ++++ (> = 75% = ++++) | – | –
18 | 258 (LLSERFINV; listed as Homo sapiens) [compound 258] | ++++ (> = 75% = ++++) | – | –
19 | 92 (GLLFSLRSV; listed as Homo sapiens) [compound 92] | ++++ (> = 75% = ++++) | – | –
20 | 34 (FLLATEVVTV; listed as Homo sapiens) [compound 34] | ++++ (> = 75% = ++++) | – | –
21 | 204 (TYELRYFQI; listed as Homo sapiens) [compound 204] | – | + (<20% = +) | Peptide exchange (HLA-A*24): ++++ (> = 75% = ++++)
22 | 291 (KLDETGNSL; listed as Homo sapiens) [compound 291] | – | – | Wells (CD8+ T cells; CD8+ T cells of healthy donors, three stimulation cycles, multimer staining): + (<20% = +)

Second part, led by results:

Row | Peptide exchange (HLA-A*02) | Substance | Wells positive [%] (CD8+ T cells) | other results
23 | ++++ (> = 75% = ++++) | 112 (SLGKFTFDV; listed as Homo sapiens) [compound 112] | – | –
24 | ++++ (> = 75% = ++++) | 3 (KLEENGDLYL; listed as Homo sapiens) [compound 3] | – | –
25 | ++++ (> = 75% = ++++) | 248 (YLDRFLAGV; listed as Homo sapiens) [compound 248] | – | –
26 | + (<20% = +) | 42 (LLDSVSRL; listed as Homo sapiens) [compound 42] | – | –
27 | + (<20% = +) | 120 (VTPVTVSAV; listed as Homo sapiens) [compound 120] | – | –
28 | ++++ (> = 75% = ++++) | 126 (QMFQYFITV; listed as Homo sapiens) [compound 126] | – | –
29 | ++++ (> = 75% = ++++) | 12 (GLLPLLHRA; listed as Homo sapiens) [compound 12] | ++++ (> = 70% = ++++) | –
30 | ++++ (> = 75% = ++++) | 1 (LLYPEPWSV; listed as Homo sapiens) [compound 1] | – | –
31 | ++++ (> = 75% = ++++) | 249 (GLCERLVSL; listed as Homo sapiens) [compound 249] | + (<20% = +) | –
32 | ++++ (> = 75% = ++++) | 16 (YTLDIPVLFGV; listed as Homo sapiens) [compound 16] | – | –
33 | ++++ (> = 75% = ++++) | 147 (YLMDDTVEI; listed as Homo sapiens) [compound 147] | – | –
34 | ++++ (> = 75% = ++++) | 95 (GLLGSLFFL; listed as Homo sapiens) [compound 95] | – | –
35 | ++++ (> = 75% = ++++) | 229 (AILAHLNTV; listed as Homo sapiens) [compound 229] | – | –
36 | ++++ (> = 75% = ++++) | 84 (ALCPRIHEV; listed as Homo sapiens) [compound 84] | – | –
37 | ++++ (> = 75% = ++++) | 4 (KLMPGTYTL; listed as Homo sapiens) [compound 4] | + (<20% = +) | –
38 | ++++ (> = 75% = ++++) | 245 (SLLDLPLSL; listed as Homo sapiens) [compound 245] | – | –
39 | ++++ (> = 75% = ++++) | 133 (ALLPRLHQL; listed as Homo sapiens) [compound 133] | – | –
40 | ++++ (> = 75% = ++++) | 14 (ILAKDLFEI; listed as Homo sapiens) [compound 14] | – | –
